Columns and labels:
[1] = test system: ADAMTS-1 message in THP-1 cells; experiment: Real time PCR of ADAMTS-1 message in THP-1 cells; format: cell-based, human; conditions: PMA 160 nM, 0 to 8+1 days
Procedure: THP-1 cells were cultured in RPMI 1640 media supplemented with 10% FBS, penicillin-Streptomycin, sodium pyruvate, and nonessential amino acids (Sigma). PMA (Sigma) was dissolved in ethanol and diluted in the medium at a final concentration of 160 nM. LDL was equilibrated in PBS and diluted to 400 μg/mL and oxidized with 10 μM CuSO4 for 2.5 hours at 37 degrees C. The mildly oxidized LDL was equilibrated in RPMI 1640 and filter sterilized.
THP-1 cells were cultured in media containing PMA for 0, 2, 4, 8, and 8+1 days. Another set of plates were incubated with PMA for 8+1 days, with the mildly oxidized LDL also present in the last day. RNA was extracted and ADAMTS-1 message was analyzed by real time PCR.

[2] = test system: 38 amino acid peptide derived from the published cleavage site on the proteoglycan aggrecan
[3] = molecular target: versican (large proteoglycan population secreted by primary human aortic smooth muscle cells) (UniProt P13611)
Sequence of UniProt P13611 (P13611 21-3396): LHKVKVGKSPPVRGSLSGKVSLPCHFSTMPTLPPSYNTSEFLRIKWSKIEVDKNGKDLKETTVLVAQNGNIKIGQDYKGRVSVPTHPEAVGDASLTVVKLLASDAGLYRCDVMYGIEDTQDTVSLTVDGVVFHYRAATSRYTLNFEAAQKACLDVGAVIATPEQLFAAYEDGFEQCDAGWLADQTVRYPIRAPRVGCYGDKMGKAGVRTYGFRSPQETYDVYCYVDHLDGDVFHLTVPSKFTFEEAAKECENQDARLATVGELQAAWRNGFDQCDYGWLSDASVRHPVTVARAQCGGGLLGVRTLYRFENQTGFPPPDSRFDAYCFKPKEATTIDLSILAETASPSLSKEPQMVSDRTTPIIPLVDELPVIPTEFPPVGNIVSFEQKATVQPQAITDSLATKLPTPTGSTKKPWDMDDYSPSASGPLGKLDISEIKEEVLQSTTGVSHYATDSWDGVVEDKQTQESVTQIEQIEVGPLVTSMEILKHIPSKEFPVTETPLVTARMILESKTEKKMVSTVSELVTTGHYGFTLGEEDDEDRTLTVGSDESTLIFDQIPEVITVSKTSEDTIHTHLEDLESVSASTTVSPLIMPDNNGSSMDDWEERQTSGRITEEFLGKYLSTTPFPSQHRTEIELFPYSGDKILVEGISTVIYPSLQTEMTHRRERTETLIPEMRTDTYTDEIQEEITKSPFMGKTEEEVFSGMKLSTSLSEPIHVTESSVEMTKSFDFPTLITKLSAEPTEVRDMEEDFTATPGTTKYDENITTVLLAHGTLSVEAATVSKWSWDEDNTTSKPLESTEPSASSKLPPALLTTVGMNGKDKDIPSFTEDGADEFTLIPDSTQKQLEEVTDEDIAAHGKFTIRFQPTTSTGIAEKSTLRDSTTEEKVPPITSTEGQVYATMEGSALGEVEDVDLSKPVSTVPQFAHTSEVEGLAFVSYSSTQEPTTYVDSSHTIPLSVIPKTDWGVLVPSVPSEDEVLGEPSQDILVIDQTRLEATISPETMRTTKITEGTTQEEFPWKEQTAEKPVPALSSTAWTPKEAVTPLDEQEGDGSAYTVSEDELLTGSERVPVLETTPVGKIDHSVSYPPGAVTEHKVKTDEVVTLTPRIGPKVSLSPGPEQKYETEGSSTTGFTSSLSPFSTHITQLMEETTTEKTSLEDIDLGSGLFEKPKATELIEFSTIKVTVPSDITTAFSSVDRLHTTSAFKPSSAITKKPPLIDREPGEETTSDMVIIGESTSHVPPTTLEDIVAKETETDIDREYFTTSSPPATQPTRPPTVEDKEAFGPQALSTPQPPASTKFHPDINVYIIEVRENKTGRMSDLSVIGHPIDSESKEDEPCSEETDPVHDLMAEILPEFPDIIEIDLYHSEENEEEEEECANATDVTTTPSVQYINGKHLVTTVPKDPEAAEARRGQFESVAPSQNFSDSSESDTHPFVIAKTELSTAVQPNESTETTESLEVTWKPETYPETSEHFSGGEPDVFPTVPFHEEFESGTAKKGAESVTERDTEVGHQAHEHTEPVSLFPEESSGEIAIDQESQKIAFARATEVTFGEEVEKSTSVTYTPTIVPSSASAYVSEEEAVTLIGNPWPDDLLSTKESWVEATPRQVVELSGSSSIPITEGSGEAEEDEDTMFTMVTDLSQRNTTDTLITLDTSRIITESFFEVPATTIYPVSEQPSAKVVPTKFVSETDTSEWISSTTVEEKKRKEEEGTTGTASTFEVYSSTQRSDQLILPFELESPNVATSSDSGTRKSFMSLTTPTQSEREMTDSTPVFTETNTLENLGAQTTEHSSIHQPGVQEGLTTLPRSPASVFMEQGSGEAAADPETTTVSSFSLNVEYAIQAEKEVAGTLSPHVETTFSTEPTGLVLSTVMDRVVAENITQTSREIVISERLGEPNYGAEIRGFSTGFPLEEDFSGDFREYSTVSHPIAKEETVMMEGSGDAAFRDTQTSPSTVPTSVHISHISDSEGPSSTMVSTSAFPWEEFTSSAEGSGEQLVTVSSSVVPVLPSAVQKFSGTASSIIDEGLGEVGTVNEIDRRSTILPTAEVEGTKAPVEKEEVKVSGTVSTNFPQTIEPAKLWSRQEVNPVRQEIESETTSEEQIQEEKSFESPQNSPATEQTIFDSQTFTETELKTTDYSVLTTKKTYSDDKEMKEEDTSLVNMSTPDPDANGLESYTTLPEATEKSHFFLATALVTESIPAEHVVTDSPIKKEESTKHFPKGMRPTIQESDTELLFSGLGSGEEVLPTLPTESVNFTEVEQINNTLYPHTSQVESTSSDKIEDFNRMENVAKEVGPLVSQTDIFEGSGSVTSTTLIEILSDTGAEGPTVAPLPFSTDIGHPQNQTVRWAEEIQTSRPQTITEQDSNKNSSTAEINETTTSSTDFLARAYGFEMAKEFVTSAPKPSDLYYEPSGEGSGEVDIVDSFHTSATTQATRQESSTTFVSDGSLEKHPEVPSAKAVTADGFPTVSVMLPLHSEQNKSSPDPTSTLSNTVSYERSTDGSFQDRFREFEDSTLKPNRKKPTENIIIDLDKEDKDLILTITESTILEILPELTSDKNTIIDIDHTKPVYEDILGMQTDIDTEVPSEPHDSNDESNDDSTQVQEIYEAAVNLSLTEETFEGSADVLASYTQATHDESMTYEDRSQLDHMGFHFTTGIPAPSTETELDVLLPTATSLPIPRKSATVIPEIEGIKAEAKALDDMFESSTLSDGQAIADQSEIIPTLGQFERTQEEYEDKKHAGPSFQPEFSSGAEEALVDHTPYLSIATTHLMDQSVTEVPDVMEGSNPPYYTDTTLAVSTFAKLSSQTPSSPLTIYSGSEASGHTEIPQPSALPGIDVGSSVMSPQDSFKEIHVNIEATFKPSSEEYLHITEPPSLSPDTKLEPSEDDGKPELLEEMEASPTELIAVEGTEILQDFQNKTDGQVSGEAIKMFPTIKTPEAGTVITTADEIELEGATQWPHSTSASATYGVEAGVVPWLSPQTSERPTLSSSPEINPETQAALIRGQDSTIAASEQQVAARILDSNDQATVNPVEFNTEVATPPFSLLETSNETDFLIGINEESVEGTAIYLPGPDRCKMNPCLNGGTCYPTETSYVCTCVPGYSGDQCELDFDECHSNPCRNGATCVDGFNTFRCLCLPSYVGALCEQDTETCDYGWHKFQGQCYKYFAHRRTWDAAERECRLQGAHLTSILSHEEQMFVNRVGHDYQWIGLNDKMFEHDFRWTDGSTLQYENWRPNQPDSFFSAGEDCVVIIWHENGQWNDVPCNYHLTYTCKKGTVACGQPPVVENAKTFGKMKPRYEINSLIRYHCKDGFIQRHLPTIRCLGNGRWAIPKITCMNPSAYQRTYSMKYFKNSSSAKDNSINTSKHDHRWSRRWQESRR

versican = experiment: Digestion of proteoglycans from aortic smooth muscle cells, size exclusion chromatography; format: biochemical, human; conditions: total proteoglycan from primary aortic smooth muscle cells incubated with ADAMTS-1 before size exclusion chromatography
Procedure: Human aortic smooth muscle cells were purchased from Clonetics (BioWhittaker) and cultured according to supplier. For preparation of total proteoglycan population (total PG), AoSMCs were seeded at 3000 cells/cm2 in SmBM2 media (4×80 cm2 flasks). 5 days later, the cells were washed with Dulbecco's PBS and BME-Diploid medium with FBS was added to the cells. 1 day later, fresh DME-Diploid medium without FBS, containing 35S-Sulfate 33 μCi/mL and 3H-Leucine 17 μCi/mL, 15 mL/bottle and incubated for 3 days. The medium was transferred and dialyzed against binding buffer containing 8M urea, 2 mM EDTA, 0.5% Triton X-100, and 20 mM Tris-HCl, pH 7.5, for 48 hours and applied to a pre-equilibrated Hi-Trap Q column. After washing with 25 mL of Elution buffer A (binding buffer+0.25 M NaCl, proteoglycan population is eluted with a linear salt gradient: 0.25-3 M NaCl in binding buffer. Total counts in each fraction were counted by liquid scintillation counting. The fractions containing PGs were pooled, dialyzed against water, lyophilized and stored at −20 degrees C. until use (‘total PG’).
Separation by size exclusion chromatography was performed using a Superdex 200 HR 10/30 from Amersham Pharmacia biotech. […] 1 mL fractions were collected and 35S measured for each fraction.

Molecule: CCCCCCCCCCCCCC(=O)O[C@@H]1[C@@H](C)[C@@]2(O)[C@@H](C=C(CO)C[C@]3(O)C(=O)C(C)=C[C@@H]23)[C@@H]2C(C)(C)[C@]12OC(C)=O [PMA]
- ADAMTS-1 message level [1]: induced

Molecule: recombinant ADAMTS-1
- cleavage of peptide substrate, HPLC analysis [2]: Cleavage of the peptide by recombinant ADAMTS-1 has been confirmed by HPLC analysis
- size exclusion chromatography of total proteoglycan incubated with or without ADAMTS-1 [3]: In the presence of ADAMTS-1, the size of the large proteoglycan population made up primarily of versican is reduced and the size of the peak corresponding to smaller sized proteoglycan population is increased

B1: ADAMTS-1: metalloproteinase (A Disintegrin-like And Metalloprotease with Thrombospondin type 1 motif), incubated with total proteoglycan (protein)
chain: FVSSHRYVETMLVADQSMAEFHGSGLKHYLLTLFSVAARLYKHPSIRNSVSLVVVKILVIHDEQKGPEVTSNAALTLRNFCNWQKQHNPPSDRDAEHYDTAILFTRQDLCGSQTCDTLGMADVGTVCDPSRSCSVIEDDGLQAAFTTAHELGHVFNMPHDDAKQCASLNGVNQDSHMMASMLSNLDHSQPWSPCSAYMITSFLDNGHGECLMDKPQNPIQLPGDLPGTSYDANRQCQFTFGEDSKHCPDAASTCSTLWCTGTSGGVLVCQTKHFPWADGTSCGEGKWCINGKCVNKTDRKHFDTPFHGSWGMWGPWGDCSRTCGGGVQYTMRECDNPVPKNGGKYCEGKRVRYRSCNLEDCPDNNGKTFREEQCEAHNEFSKASFGSGPAVEWIPKYAGVSPKDRCKLICQAKGIGYFFVLQPKVVDGTPCSPDSTSVCVQGQCVKAGCDRIIDSKKKFDKCGVCGGNGSTCKKISGSVTSAKPGYHDIITIPTGATNIEVKQRNQRGSRNNGSFLAIKAADGTYILNGDYTLSTLEQDIMYKGVVLRYSGSSAALERIRSFSPLKEPLTIQVLTVGNALRPKIKYTYFVKKKKESFNAIPTFSAWVIEEWGECSKSCELGWQRRLVECRDINGQPASECAKEVKPASTRPCADHPCPQWQLGEWSSCSKTCGKGYKKRSLKCLSHDGGVLSHESCDPLKKPKHFIDFCTMAECS
- cleavage of large proteoglycan population (versican) (versican): the size of the large proteoglycan peak is diminished

Reference: patent publication US20040014636A1, “Pharmaceutical compositions comprising a modulator of adamts-1” (priority 2000, published 2004)
